Source: article PMC9864931 (Vaccines, 2022)

Target: E. coli-produced Wuhan-Hu1 RBD (receptor binding domain of the SARS-CoV-2 spike protein, a.a. 319-542) (SARS-CoV-2 (Wuhan-Hu1), UniProt P0DTC2)
Test: ELISA
Conditions: both partners purified

B1: mAb WRAIR-2057 (antibody, V domains shown)
VH: EVQLVQSGAEVKKPGESLKISCKGSGYSFISYWIAWVRQMPGKGLEWMGIIYPGDSDTTYSPSFQGQVTISADKSISTAYLQWSSLKASDTAIYYCARLLYYSDSSPLDSWGQGTLVTVSS
VL: DIQMTQSPSSLSASVGDRVTITCRASQSISTYLNWYQQKPGKAPNLLIYAASSLQSGVPSRFSGSGSGTDFTLTISSLQPEDFATYYCQQSHSTPRTFGPGTKVDIK
B1: binds.
